# Where a chain is given by its changes, count along the chain named.
# T1: Human CCR4 expressed on CHO-S cells (human, UniProt P51679 1-360)
# T1 construct: whole, on cells; also called CCR4-expressing CHO-S cells
# T1 sequence (looked up): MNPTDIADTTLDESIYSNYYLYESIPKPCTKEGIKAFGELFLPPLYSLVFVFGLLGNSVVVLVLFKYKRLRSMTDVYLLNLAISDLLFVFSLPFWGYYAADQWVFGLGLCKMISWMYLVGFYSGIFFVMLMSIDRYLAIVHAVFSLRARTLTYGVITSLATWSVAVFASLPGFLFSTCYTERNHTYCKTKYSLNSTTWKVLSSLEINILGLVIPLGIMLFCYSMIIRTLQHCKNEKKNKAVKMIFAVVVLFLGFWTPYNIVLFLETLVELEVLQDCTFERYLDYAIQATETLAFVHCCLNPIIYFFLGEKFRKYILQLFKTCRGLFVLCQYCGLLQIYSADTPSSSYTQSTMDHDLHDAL
# B1: 19-O07 chimera (human IgG1) (antibody)
# heavy: not shown
# light: DVVMTQTPLTLSVTIGQPASISCKSSQSLLYSNGKTYLNWLLQRPGQSPKRLIYLVSKLDSGVPDRFTGSGSGTDFTLKISRVEAEDLGVYYCVQGTRFPWTFGGGTNLEIKRTVAAPSVFIFPPSDEQLKSGTASVVCLLNNFYPREAKVQWKVDNALQSGNSQESVTEQDSKDSTYSLSSTLTLSKADYEKHKVYACEVTHQGLSSPVTKSFNRGEC
# notes: also called 19-007; 19-O07 chimeric antibody
# B2: 1-K16 chimera (human IgG1) (antibody)
# heavy: not shown
# light: DIVMTQAAPSVPVTPGESVSISCRSSKSLLHSNGNTYLYWFLQRPGQSPQLLIYRMSNLASGVPDRFSGSGSGTAFTLRISRVEAEDVGVYYCMQHLEYPFTFGAGTKLELKRTVAAPSVFIFPPSDEQLKSGTASVVCLLNNFYPREAKVQWKVDNALQSGNSQESVTEQDSKDSTYSLSSTLTLSKADYEKHKVYACEVTHQGLSSPVTKSFNRGEC
# notes: also called 1-K16 chimeric antibody
# B3: 13-E16 chimera (human IgG1) (antibody)
# heavy: not shown
# light: QIVLTQSPAIMSASPGEKVTITCSASSSVSYMHWFQQKPGTSPKLWIYSTSNLASGVPARFSGSGSGTSYFLTISRMEAEDAATYYCQQRSSYPYTFGGGTKLERKRTVAAPSVFIFPPSDEQLKSGTASVVCLLNNFYPREAKVQWKVDNALQSGNSQESVTEQDSKDSTYSLSSTLTLSKADYEKHKVYACEVTHQGLSSPVTKSFNRGEC
# notes: also called 13-E16 chimeric antibody
# B4: 6-B09 chimera (human IgG1) (antibody)
# heavy: not shown
# light: B3 light with S30I, S49A, F71S, Y95L, G99A, R105L
# notes: also called 6-B09 chimeric antibody
# B5: 1-K17 chimera (human IgG1) (antibody)
# heavy: not shown
# light: DVVMTQTPLSLPVSLGDQASISCRSSQSLVHSNGNTYLYWYLQKPGQSPKLLIYKVSNRFSGVPDRFSGSGSGTDFTLKISRVEAEDLGVYFCSQSTHVPYTFGGGTKLEIKRTVAAPSVFIFPPSDEQLKSGTASVVCLLNNFYPREAKVQWKVDNALQSGNSQESVTEQDSKDSTYSLSSTLTLSKADYEKHKVYACEVTHQGLSSPVTKSFNRGEC
# notes: also called 1-K17.hG1 Chimera
# B6: 7B16-H1.001 (CDR H1 swapped mutant of 7-B16) (antibody, V domains shown)
# VH: EVQLVESGGGLVQPKGSLKLSCAASGFTFSGSAMHWVRQAPGKGLEWVARIRSKSNNYATYYADSVKDRFTISRDDSQSMLYLQMNNLKTEDTAMYYCVRGLLRYRFFDVWGAGTTVTVSS
# VL: DIVMTQAEPSVPVTPGESISISCRSSKSLLHSNGNTYLYWFLQRPGQSPQLLIYRMSNLASGVPDRFSGSGSGTAFTLRISRVEAEDVGVYYCMQHLEYPFTFGGGTKLEIKR
# notes: also called CDR swapped variant H1
# Biological target: T1, Human CCR4 expressed on CHO-S cells
# Experiment: flow cytometry
row,Binder,binding result
1,B1,no binding
2,B2,no binding
3,B3,no binding
4,B4,no binding
5,B5,no binding

# Biological target: T2, Human CCR8 on human CCR8-overexpression lipoparticles (human, UniProt P51685 1-355)
# Experiment: sequential format ELISA on human CCR8-overexpression lipoparticles; competitor 6-B09
# T2 sequence (P51685 whole entry): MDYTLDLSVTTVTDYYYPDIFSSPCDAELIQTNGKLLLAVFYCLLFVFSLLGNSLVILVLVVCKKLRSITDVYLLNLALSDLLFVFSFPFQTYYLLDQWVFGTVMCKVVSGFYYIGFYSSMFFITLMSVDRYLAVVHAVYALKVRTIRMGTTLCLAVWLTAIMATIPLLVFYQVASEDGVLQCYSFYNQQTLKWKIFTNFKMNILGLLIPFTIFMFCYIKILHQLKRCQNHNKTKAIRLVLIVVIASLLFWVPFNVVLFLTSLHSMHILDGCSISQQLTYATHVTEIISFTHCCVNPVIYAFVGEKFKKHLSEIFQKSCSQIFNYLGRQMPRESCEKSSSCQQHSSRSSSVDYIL
row,Binder,ELISA epitope binning signal
1,B1,0.679
2,B2,0.964
3,B4,0.512
4,B5,0.651

# Biological target: T2, Human CCR8 on human CCR8-overexpression …
# Experiment: sequential format ELISA on human CCR8-overexpression lipoparticles; competitor 7-B16
row,Binder,ELISA epitope binning signal
1,B1,1.02
2,B2,0.758
3,B4,0.776
4,B5,0.047

# Biological target: T3, Human CCR8 (C-C chemokine receptor type 8) expressed on CHO-S cells (human, UniProt P51685 1-355)
# T3 construct: also called huCCR8; human CCR8-expressing CHO-S cells
# Experiment: flow cytometry on CHO cells expressing CCR8, EC50 column
# Experimental: CCR8 binding was determined using flow cytometry according to the same methods used in Example 4, Briefly, antibodies were screened for specific binding to human CCR8 by flow cytometry using human CCR8-overexpressing and parental CHO—S cell line. Antibodies specifically binding to human CCR8 were also tested for binding to CCR4 by flow cytometry.
# T3 sequence (P51685 whole entry): as above
row,Binder,binding result
1,B6,no binding

# Biological target: T3, Human CCR8 (C-C chemokine receptor type …)
# Experiment: flow cytometry epitope binning, tandem format, human CCR8-overexpressing cells; competitor 19-O07
# Experimental: (§1) A subset of antibodies against human CCR8 were epitope binned using flow cytometry method in tandem format. Briefly, one set of antibodies was biotinylated. Human CCR8-overexpressing cells were incubated at 4° C., with the non-biotinylated antibodies at 10 μg/mL for 1 hour, then without washing the biotinylated antibodies were added at 10 μg/mL. After a further 1-hour incubation, cells were washed three times and then stained with streptavidin-phycoerythrin (PE-strep) secondary antibody for 30 minutes. Binding competition was determined by detecting PE by flow cytometry. The response values were normalized as the % of the maximum binding of the individual antibody.
row,Binder,% of the maximum binding [%]
1,B1,54
2,B2,149
3,B4,32
4,B5,28

# Biological target: T3, Human CCR8 (C-C chemokine receptor type …)
# Experiment: flow cytometry epitope binning, tandem format, human CCR8-overexpressing cells; competitor 7-B16
# Experimental: as §1
row,Binder,% of the maximum binding [%]
1,B1,108
2,B2,88
3,B4,89
4,B5,14

# Biological target: T3, Human CCR8 (C-C chemokine receptor type …)
# Experiment: cell-based or functional assay
row,Binder,"IC50, antagonist activity in DiscoverX PathHunter beta-arrestin assay with 13.7 nM human CCL1 [µg/mL]"
1,B1,995
2,B2,4.55
3,B3,12.6
4,B5,0.071

# Biological target: T3, Human CCR8 (C-C chemokine receptor type …)
# Experiment: flow cytometry epitope binning, tandem format, human CCR8-overexpressing cells; competitor 1-K17
# Experimental: as §1
row,Binder,% of the maximum binding [%]
1,B1,91
2,B2,32
3,B4,94
4,B5,11

# Biological target: T3, Human CCR8 (C-C chemokine receptor type …)
# Experiment: flow cytometry epitope binning, tandem format, human CCR8-overexpressing cells; competitor 1-K16
# Experimental: as §1
row,Binder,% of the maximum binding [%]
1,B1,109
2,B2,31
3,B4,102
4,B5,12

# Biological target: T2, Human CCR8 on human CCR8-overexpression …
# Experiment: sequential format ELISA on human CCR8-overexpression lipoparticles; competitor 1-K16
row,Binder,ELISA epitope binning signal
1,B1,0.882
2,B2,0.264
3,B4,0.8
4,B5,0.036

# Biological target: T3, Human CCR8 (C-C chemokine receptor type …)
# Experiment: flow cytometry epitope binning, tandem format, human CCR8-overexpressing cells; competitor 6-B09
# Experimental: as §1
row,Binder,% of the maximum binding [%]
1,B1,39
2,B2,167
3,B4,44
4,B5,102

# Biological target: T3, Human CCR8 (C-C chemokine receptor type …)
# Experiment: KinExA, on-cell, human CCR8-expressing CHO-S cells
# Experimental: (§2) Samples were gently rocked for 2.5 hours at 37° C. to achieve equilibrium.
# (§3) To determine the rate of association (kₒₙ), the same immobilized biotinylated goat anti-human IgG-PMMA column was used as the capture reagent for kinetic experiments.
# (§4) Data analysis was performed using KinExA Pro software at Sapidyne Instruments Inc to generate Kd and kₒₙ, The rate of dissociation (koff) was calculated based on the equation below.
Binder,Kd [nM],kon [M⁻¹ s⁻¹]
B5,0.018,7.81e+06

# Biological target: T3, Human CCR8 (C-C chemokine receptor type …)
# Experiment: KinExA, on-cell, human CCR8-expressing CHO-S cells; calculated from Kd and kon
# Experimental: as §2, §3, §4
row,Binder,koff [s⁻¹]
1,B5,0.000144

# Biological target: T2, Human CCR8 on human CCR8-overexpression …
# Experiment: sequential format ELISA on human CCR8-overexpression lipoparticles; competitor 1-K17
row,Binder,ELISA epitope binning signal
1,B1,0.784
2,B2,0.794
3,B4,0.82
4,B5,0.124

# Biological target: T3, Human CCR8 (C-C chemokine receptor type …)
# Experiment: cell-based or functional assay
# Remark: another data set of the same source
row,Binder,EC50 of ADCC function (Promega ADCC reporter bioassay) [µg/mL]
1,B3,0.0549
2,B5,0.00618

# Biological target: T2, Human CCR8 on human CCR8-overexpression …
# Experiment: sequential format ELISA on human CCR8-overexpression lipoparticles; competitor 19-O07
row,Binder,ELISA epitope binning signal
1,B1,0.817
2,B2,1.49
3,B4,0.577
4,B5,0.268
